Results from patent US20240400654A1.
Values joined by “and” are separate entries in the source; they are usually repeats but may differ in a detail not shown here. Equal values may be shown once.

Legend:
[1] = target: HRgpA-6H (Porphyromonas gingivalis) (UniProt P28784); experiment: ELISA, FASEBA screening, coated HRgpA-6H; variant OD over parental WT Fab OD
[2] = target: HRgpA-6H (Porphyromonas gingivalis) (UniProt P28784); experiment: ELISA, FASEBA screening, coated HRgpA-6H 0.0625 ug/ml

UniProt P28784, sequence (P28784 228-860): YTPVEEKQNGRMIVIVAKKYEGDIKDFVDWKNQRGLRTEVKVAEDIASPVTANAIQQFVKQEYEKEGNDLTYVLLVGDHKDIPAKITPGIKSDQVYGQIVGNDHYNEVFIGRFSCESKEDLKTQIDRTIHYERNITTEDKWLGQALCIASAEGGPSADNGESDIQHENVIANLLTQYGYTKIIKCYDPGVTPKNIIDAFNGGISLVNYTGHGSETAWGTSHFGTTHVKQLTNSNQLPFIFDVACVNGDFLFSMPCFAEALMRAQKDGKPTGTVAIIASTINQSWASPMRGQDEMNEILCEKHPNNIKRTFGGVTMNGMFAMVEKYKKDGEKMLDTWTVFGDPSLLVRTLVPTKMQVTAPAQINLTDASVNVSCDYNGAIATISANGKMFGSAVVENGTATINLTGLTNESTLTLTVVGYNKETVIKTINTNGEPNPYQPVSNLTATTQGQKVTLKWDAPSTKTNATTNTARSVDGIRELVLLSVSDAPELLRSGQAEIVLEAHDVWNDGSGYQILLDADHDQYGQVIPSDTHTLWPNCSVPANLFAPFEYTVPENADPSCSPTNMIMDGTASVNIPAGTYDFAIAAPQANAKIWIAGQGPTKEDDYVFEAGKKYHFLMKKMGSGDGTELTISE

Binder	Ratio OD(Variant)/OD(WT) [1]	OD450 nm [2]
KB001 parental mouse Fab FASEBA variant VH N100I (Fab, V domains shown) VH: EVQLKQSGPGLVAPSQSLSITCTVSGFSLSIYSVHWVRQPPGKGLEWLGMIWGGGSSDYNSALKSRLSISKDNSKSQVFLKMNSLQTDDTAMYYCARNGIFYAMDYWGQGTSVTVSS VL: QIVLTQSPAIMSASLGERVTMTCTASSSVSSSFLHWYQQKPGSSPQLWIYSTSNLASGVPARFSGSGSGTSYSLTISSMEAEDAATYYCHQYHHSPYIYTFGGGTKLEIK	0.94 and 0.983	0.796 and 0.833
KB001 parental mouse Fab FASEBA variant VH A103G (Fab, V domains shown) VH: EVQLKQSGPGLVAPSQSLSITCTVSGFSLSIYSVHWVRQPPGKGLEWLGMIWGGGSSDYNSALKSRLSISKDNSKSQVFLKMNSLQTDDTAMYYCARNGNFYGMDYWGQGTSVTVSS VL: QIVLTQSPAIMSASLGERVTMTCTASSSVSSSFLHWYQQKPGSSPQLWIYSTSNLASGVPARFSGSGSGTSYSLTISSMEAEDAATYYCHQYHHSPYIYTFGGGTKLEIK	0.945 and 0.933 and 0.876	0.815 and 0.804 and 0.755
KB001 parental mouse Fab FASEBA variant VH N100K (Fab, V domains shown) VH: EVQLKQSGPGLVAPSQSLSITCTVSGFSLSIYSVHWVRQPPGKGLEWLGMIWGGGSSDYNSALKSRLSISKDNSKSQVFLKMNSLQTDDTAMYYCARNGKFYAMDYWGQGTSVTVSS VL: QIVLTQSPAIMSASLGERVTMTCTASSSVSSSFLHWYQQKPGSSPQLWIYSTSNLASGVPARFSGSGSGTSYSLTISSMEAEDAATYYCHQYHHSPYIYTFGGGTKLEIK	0.946 and 0.934	0.801 and 0.791
KB001 parental mouse Fab FASEBA variant VH F101L (Fab, V domains shown) VH: EVQLKQSGPGLVAPSQSLSITCTVSGFSLSIYSVHWVRQPPGKGLEWLGMIWGGGSSDYNSALKSRLSISKDNSKSQVFLKMNSLQTDDTAMYYCARNGNLYAMDYWGQGTSVTVSS VL: QIVLTQSPAIMSASLGERVTMTCTASSSVSSSFLHWYQQKPGSSPQLWIYSTSNLASGVPARFSGSGSGTSYSLTISSMEAEDAATYYCHQYHHSPYIYTFGGGTKLEIK	0.804	0.681
KB001 parental mouse Fab FASEBA variant VH N100Y (Fab, V domains shown) VH: EVQLKQSGPGLVAPSQSLSITCTVSGFSLSIYSVHWVRQPPGKGLEWLGMIWGGGSSDYNSALKSRLSISKDNSKSQVFLKMNSLQTDDTAMYYCARNGYFYAMDYWGQGTSVTVSS VL: QIVLTQSPAIMSASLGERVTMTCTASSSVSSSFLHWYQQKPGSSPQLWIYSTSNLASGVPARFSGSGSGTSYSLTISSMEAEDAATYYCHQYHHSPYIYTFGGGTKLEIK	0.894 and 0.926 and 0.825	0.757 and 0.784 and 0.699
KB001 parental mouse Fab FASEBA variant VH N100S (Fab, V domains shown) VH: EVQLKQSGPGLVAPSQSLSITCTVSGFSLSIYSVHWVRQPPGKGLEWLGMIWGGGSSDYNSALKSRLSISKDNSKSQVFLKMNSLQTDDTAMYYCARNGSFYAMDYWGQGTSVTVSS VL: QIVLTQSPAIMSASLGERVTMTCTASSSVSSSFLHWYQQKPGSSPQLWIYSTSNLASGVPARFSGSGSGTSYSLTISSMEAEDAATYYCHQYHHSPYIYTFGGGTKLEIK	0.943 and 0.996 and 0.95	0.799 and 0.844 and 0.805
KB001 parental mouse Fab FASEBA variant VH N100T (Fab, V domains shown) VH: EVQLKQSGPGLVAPSQSLSITCTVSGFSLSIYSVHWVRQPPGKGLEWLGMIWGGGSSDYNSALKSRLSISKDNSKSQVFLKMNSLQTDDTAMYYCARNGTFYAMDYWGQGTSVTVSS VL: QIVLTQSPAIMSASLGERVTMTCTASSSVSSSFLHWYQQKPGSSPQLWIYSTSNLASGVPARFSGSGSGTSYSLTISSMEAEDAATYYCHQYHHSPYIYTFGGGTKLEIK	0.893 and 0.924	0.756 and 0.783
KB001 parental mouse Fab FASEBA variant VH N100R (Fab, V domains shown) VH: EVQLKQSGPGLVAPSQSLSITCTVSGFSLSIYSVHWVRQPPGKGLEWLGMIWGGGSSDYNSALKSRLSISKDNSKSQVFLKMNSLQTDDTAMYYCARNGRFYAMDYWGQGTSVTVSS VL: QIVLTQSPAIMSASLGERVTMTCTASSSVSSSFLHWYQQKPGSSPQLWIYSTSNLASGVPARFSGSGSGTSYSLTISSMEAEDAATYYCHQYHHSPYIYTFGGGTKLEIK	0.93	0.788
KB001 parental mouse Fab FASEBA variant VH A103V (Fab, V domains shown) VH: EVQLKQSGPGLVAPSQSLSITCTVSGFSLSIYSVHWVRQPPGKGLEWLGMIWGGGSSDYNSALKSRLSISKDNSKSQVFLKMNSLQTDDTAMYYCARNGNFYVMDYWGQGTSVTVSS VL: QIVLTQSPAIMSASLGERVTMTCTASSSVSSSFLHWYQQKPGSSPQLWIYSTSNLASGVPARFSGSGSGTSYSLTISSMEAEDAATYYCHQYHHSPYIYTFGGGTKLEIK	0.985 and 0.936	0.849 and 0.807
KB001 parental mouse Fab FASEBA variant VH N100A (Fab, V domains shown) VH: EVQLKQSGPGLVAPSQSLSITCTVSGFSLSIYSVHWVRQPPGKGLEWLGMIWGGGSSDYNSALKSRLSISKDNSKSQVFLKMNSLQTDDTAMYYCARNGAFYAMDYWGQGTSVTVSS VL: QIVLTQSPAIMSASLGERVTMTCTASSSVSSSFLHWYQQKPGSSPQLWIYSTSNLASGVPARFSGSGSGTSYSLTISSMEAEDAATYYCHQYHHSPYIYTFGGGTKLEIK	0.955	0.809
KB001 parental mouse Fab FASEBA variant VH N100Q (Fab, V domains shown) VH: EVQLKQSGPGLVAPSQSLSITCTVSGFSLSIYSVHWVRQPPGKGLEWLGMIWGGGSSDYNSALKSRLSISKDNSKSQVFLKMNSLQTDDTAMYYCARNGQFYAMDYWGQGTSVTVSS VL: QIVLTQSPAIMSASLGERVTMTCTASSSVSSSFLHWYQQKPGSSPQLWIYSTSNLASGVPARFSGSGSGTSYSLTISSMEAEDAATYYCHQYHHSPYIYTFGGGTKLEIK	0.999	0.846
KB001 parental mouse Fab FASEBA variant VH N100E (Fab, V domains shown) VH: EVQLKQSGPGLVAPSQSLSITCTVSGFSLSIYSVHWVRQPPGKGLEWLGMIWGGGSSDYNSALKSRLSISKDNSKSQVFLKMNSLQTDDTAMYYCARNGEFYAMDYWGQGTSVTVSS VL: QIVLTQSPAIMSASLGERVTMTCTASSSVSSSFLHWYQQKPGSSPQLWIYSTSNLASGVPARFSGSGSGTSYSLTISSMEAEDAATYYCHQYHHSPYIYTFGGGTKLEIK	0.972	0.823
KB001 parental mouse Fab FASEBA variant VH N100C (Fab, V domains shown) VH: EVQLKQSGPGLVAPSQSLSITCTVSGFSLSIYSVHWVRQPPGKGLEWLGMIWGGGSSDYNSALKSRLSISKDNSKSQVFLKMNSLQTDDTAMYYCARNGCFYAMDYWGQGTSVTVSS VL: QIVLTQSPAIMSASLGERVTMTCTASSSVSSSFLHWYQQKPGSSPQLWIYSTSNLASGVPARFSGSGSGTSYSLTISSMEAEDAATYYCHQYHHSPYIYTFGGGTKLEIK	0.812	0.688
KB001 parental mouse Fab FASEBA variant VH N100F (Fab, V domains shown) VH: EVQLKQSGPGLVAPSQSLSITCTVSGFSLSIYSVHWVRQPPGKGLEWLGMIWGGGSSDYNSALKSRLSISKDNSKSQVFLKMNSLQTDDTAMYYCARNGFFYAMDYWGQGTSVTVSS VL: QIVLTQSPAIMSASLGERVTMTCTASSSVSSSFLHWYQQKPGSSPQLWIYSTSNLASGVPARFSGSGSGTSYSLTISSMEAEDAATYYCHQYHHSPYIYTFGGGTKLEIK	0.92	0.779
KB001 parental mouse Fab FASEBA variant VH F101W (Fab, V domains shown) VH: EVQLKQSGPGLVAPSQSLSITCTVSGFSLSIYSVHWVRQPPGKGLEWLGMIWGGGSSDYNSALKSRLSISKDNSKSQVFLKMNSLQTDDTAMYYCARNGNWYAMDYWGQGTSVTVSS VL: QIVLTQSPAIMSASLGERVTMTCTASSSVSSSFLHWYQQKPGSSPQLWIYSTSNLASGVPARFSGSGSGTSYSLTISSMEAEDAATYYCHQYHHSPYIYTFGGGTKLEIK	0.974 and 0.978 and 0.947	0.825 and 0.828 and 0.802
KB001 parental mouse Fab FASEBA variant VH N100G (Fab, V domains shown) VH: EVQLKQSGPGLVAPSQSLSITCTVSGFSLSIYSVHWVRQPPGKGLEWLGMIWGGGSSDYNSALKSRLSISKDNSKSQVFLKMNSLQTDDTAMYYCARNGGFYAMDYWGQGTSVTVSS VL: QIVLTQSPAIMSASLGERVTMTCTASSSVSSSFLHWYQQKPGSSPQLWIYSTSNLASGVPARFSGSGSGTSYSLTISSMEAEDAATYYCHQYHHSPYIYTFGGGTKLEIK	0.908 and 0.961	0.769 and 0.814
KB001 parental mouse Fab FASEBA variant VH F101S (Fab, V domains shown) VH: EVQLKQSGPGLVAPSQSLSITCTVSGFSLSIYSVHWVRQPPGKGLEWLGMIWGGGSSDYNSALKSRLSISKDNSKSQVFLKMNSLQTDDTAMYYCARNGNSYAMDYWGQGTSVTVSS VL: QIVLTQSPAIMSASLGERVTMTCTASSSVSSSFLHWYQQKPGSSPQLWIYSTSNLASGVPARFSGSGSGTSYSLTISSMEAEDAATYYCHQYHHSPYIYTFGGGTKLEIK	0.8 and 0.856	0.678 and 0.725
KB001 parental mouse Fab FASEBA variant VH F101M (Fab, V domains shown) VH: EVQLKQSGPGLVAPSQSLSITCTVSGFSLSIYSVHWVRQPPGKGLEWLGMIWGGGSSDYNSALKSRLSISKDNSKSQVFLKMNSLQTDDTAMYYCARNGNMYAMDYWGQGTSVTVSS VL: QIVLTQSPAIMSASLGERVTMTCTASSSVSSSFLHWYQQKPGSSPQLWIYSTSNLASGVPARFSGSGSGTSYSLTISSMEAEDAATYYCHQYHHSPYIYTFGGGTKLEIK	0.891	0.755
KB001 parental mouse Fab FASEBA variant VH N100L (Fab, V domains shown) VH: EVQLKQSGPGLVAPSQSLSITCTVSGFSLSIYSVHWVRQPPGKGLEWLGMIWGGGSSDYNSALKSRLSISKDNSKSQVFLKMNSLQTDDTAMYYCARNGLFYAMDYWGQGTSVTVSS VL: QIVLTQSPAIMSASLGERVTMTCTASSSVSSSFLHWYQQKPGSSPQLWIYSTSNLASGVPARFSGSGSGTSYSLTISSMEAEDAATYYCHQYHHSPYIYTFGGGTKLEIK	0.965 and 0.869 and 0.932	0.817 and 0.736 and 0.789
KB001 parental mouse Fab FASEBA variant VH A103L (Fab, V domains shown) VH: EVQLKQSGPGLVAPSQSLSITCTVSGFSLSIYSVHWVRQPPGKGLEWLGMIWGGGSSDYNSALKSRLSISKDNSKSQVFLKMNSLQTDDTAMYYCARNGNFYLMDYWGQGTSVTVSS VL: QIVLTQSPAIMSASLGERVTMTCTASSSVSSSFLHWYQQKPGSSPQLWIYSTSNLASGVPARFSGSGSGTSYSLTISSMEAEDAATYYCHQYHHSPYIYTFGGGTKLEIK	0.908	0.783
